From paper PMC3516566, “Identification of an Acinetobacter baumannii Zinc Acquisition System that Facilitates Resistance to Calprotectin-mediated Zinc Sequestration”

Target: T1, Zur (Acinetobacter baumannii ATCC 17978, UniProt V5VHH0 1-161)
T1 sequence: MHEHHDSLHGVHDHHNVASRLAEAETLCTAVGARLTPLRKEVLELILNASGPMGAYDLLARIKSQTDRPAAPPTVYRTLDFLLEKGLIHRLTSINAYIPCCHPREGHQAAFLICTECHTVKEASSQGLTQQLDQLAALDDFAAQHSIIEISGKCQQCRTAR
Assay: EMSA; 100 uM ZnCl2; Zur 0-2500 nM, DNA 250 nM; 20 mM Tris-HCl pH 8.0, 50 mM KCl, 1 mM DTT, 5% glycerol, 100 uM ZnCl2, 20 min at room temperature; 4% polyacrylamide gel
Conditions: protein: recombinant; tags: N-terminal 6xHis (pET15b), removed by thrombin; chain copies: 2; label: none (SYBR green stain); blunt

B1: znuA intragenic negative control (dsDNA)
DNA 1: GTTACAAAAATACCTAAGATTAATCGAAT
DNA 2: ATTCGATTAATCTTAGGTATTTTTGTAAC
- binding result: no binding
